How the values were obtained:
[1] = target: T1, HBV Cp149His monomer (Cp149-6xHis half-dimer) (hepatitis B virus (HBV), UniProt P03147 1-149); assay: native mass spectrometry of the purified co-expressed protein; also a single SEC peak at the dimer position and about equal SDS-PAGE bands
T1 construct: also called Cp149His6; CpHis monomer

[2] = target: the molecule itself; assay: SEC of capsid assembly at 300 mM NaCl
HBV Cp150 homodimer [3] = target: T2, HBV Cp150 homodimer (hepatitis B virus (HBV), UniProt P03147 1-149); assay: co-assembly at 300 mM NaCl, SEC
T2 chain: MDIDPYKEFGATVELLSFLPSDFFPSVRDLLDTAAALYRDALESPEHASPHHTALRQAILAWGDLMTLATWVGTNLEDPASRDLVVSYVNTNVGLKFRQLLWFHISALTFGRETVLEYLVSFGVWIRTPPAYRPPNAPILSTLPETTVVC

HBV Cp150 homodimer [4] = target: T2, HBV Cp150 homodimer; assay: negative-stain EM
[5] = target: the molecule itself; assay: Ni2+-driven assembly (10 uM heterodimer, 100 uM NiCl2, low ionic strength); SEC, CDMS, negative-stain EM

B1: HBV Cp149Y132A monomer (Cp149-Y132A half-dimer) (other)
chain: MDIDPYKEFGATVELLSFLPSDFFPSVRDLLDTAAALYRDALESPEHCSPHHTALRQAILCWGDLMTLATWVGTNLEDPASRDLVVSYVNTNVGLKFRQLLWFHISCLTFGRETVLEYLVSFGVWIRTPPAARPPNAPILSTLPETTVV
Question: Does B1 bind [1]?
Answer: binds

B2: HBV Cp149 homodimer (wild-type assembly domain) (other)
chain: MDIDPYKEFGATVELLSFLPSDFFPSVRDLLDTAAALYRDALESPEHCSPHHTALRQAILCWGDLMTLATWVGTNLEDPASRDLVVSYVNTNVGLKFRQLLWFHISCLTFGRETVLEYLVSFGVWIRTPPAYRPPNAPILSTLPETTVV
notes: also called wild-type homodimer Cp149
Question: Does B2 bind [2]?
Answer: binds

B3: Cp149HisCp149Y132A hexamer (hexamer of heterodimers assembled with Ni2+) (other)
chain 1: MDIDPYKEFGATVELLSFLPSDFFPSVRDLLDTAAALYRDALESPEHCSPHHTALRQAILCWGDLMTLATWVGTNLEDPASRDLVVSYVNTNVGLKFRQLLWFHISCLTFGRETVLEYLVSFGVWIRTPPAYRPPNAPILSTLPETTVVHHHHHH
chain 2: MDIDPYKEFGATVELLSFLPSDFFPSVRDLLDTAAALYRDALESPEHCSPHHTALRQAILCWGDLMTLATWVGTNLEDPASRDLVVSYVNTNVGLKFRQLLWFHISCLTFGRETVLEYLVSFGVWIRTPPAARPPNAPILSTLPETTVV
notes: also called heterodimer hexamer; hexamers
Question: Does B3 bind (HBV Cp150 homodimer [3])?
Answer: binds

B4: heterodimer Cp149HisCp149Y132A (other)
chain 1: MDIDPYKEFGATVELLSFLPSDFFPSVRDLLDTAAALYRDALESPEHCSPHHTALRQAILCWGDLMTLATWVGTNLEDPASRDLVVSYVNTNVGLKFRQLLWFHISCLTFGRETVLEYLVSFGVWIRTPPAYRPPNAPILSTLPETTVVHHHHHH
chain 2: MDIDPYKEFGATVELLSFLPSDFFPSVRDLLDTAAALYRDALESPEHCSPHHTALRQAILCWGDLMTLATWVGTNLEDPASRDLVVSYVNTNVGLKFRQLLWFHISCLTFGRETVLEYLVSFGVWIRTPPAARPPNAPILSTLPETTVV
notes: also called Cp149His6Cp149Y132A; asymmetric heterodimer
Question: Does B4 bind (HBV Cp150 homodimer [4])?
Answer: binds

Question: Does B4 bind [5]?
Answer: binds
